Results as given in paper doi:10.1101/2023.02.16.528878 (bioRxiv, 2023).

T1: GST-CDK5RAP3 (human, UniProt Q96JB5 1-506)
T1 sequence: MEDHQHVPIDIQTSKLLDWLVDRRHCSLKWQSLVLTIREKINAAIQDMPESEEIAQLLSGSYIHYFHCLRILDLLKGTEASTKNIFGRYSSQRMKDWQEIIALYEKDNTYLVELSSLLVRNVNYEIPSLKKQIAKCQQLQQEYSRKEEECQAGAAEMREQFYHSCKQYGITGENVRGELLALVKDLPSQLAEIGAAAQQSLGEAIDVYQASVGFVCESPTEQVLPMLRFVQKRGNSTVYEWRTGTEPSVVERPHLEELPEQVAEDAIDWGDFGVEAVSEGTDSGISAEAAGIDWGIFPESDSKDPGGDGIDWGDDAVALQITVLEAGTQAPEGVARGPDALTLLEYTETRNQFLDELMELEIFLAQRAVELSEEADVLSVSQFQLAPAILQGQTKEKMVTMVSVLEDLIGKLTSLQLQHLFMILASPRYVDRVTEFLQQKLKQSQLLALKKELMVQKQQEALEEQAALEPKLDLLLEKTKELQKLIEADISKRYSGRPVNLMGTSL

B1: recombinant UFC1 (enzyme)
chain: MADEATRRVVSEIPVLKTNAGPRDRELWVQRLKEEYQSLIRYVENNKNADNDWFRLESNKEGTRWFGKCWYIHDLLKYEFDIEFDIPITYPTTAPEIAVPELDGKTAKMYRGGKICLTDHFKPLWARNVPKFGLAHLMALGLGPWLAVEIPDLIQKGVIQHKEKCNQ

How the values were obtained:
GST-CDK5RAP3 = biological target: T1, GST-CDK5RAP3; assay: pull-down
recombinant UFC1 = biological target: B1; assay: ITC

binding result (GST-CDK5RAP3)	Kd (recombinant UFC1) [nM]	Binder
binds	–	B1
–	410	MADAWEEIRRLAADFQRAQFA [UFL1^UBS peptide, UFL1(1-21)]
